B1: MetY (O-acetyl-L-homoserine sulfhydrylase) (Methylorubrum extorquens AM1) (protein)
chain: MTDRQPGFNTLAIHAGATPDPATGARATPIYQTTSFVFDDVDHAASLFGLQAFGNIYTRITNPTNAVLEERIAALEGGTAALAVASGHAAEFLTLHALMQPGDEFIAANKLYGGSINQFNHSYKNFGWQVVWADTDDPDSFERAITPRTKAIFCESIANPGGVITDIAALSVIAKRHNIPLIVDNTMATPYLIKPFEHGADIVVHSATKFLGGHGNSIGGLIVDGGTFQWQGDARYPMLSEPRPEYAGMVLAETFGNFGFAIAVRVLSLRDLGPSLSPFNAFLILNGIETLPLRMQRHSDNALKVATFLKNHANVDWVSYPGLESDRYHALAQRYTPKGAGAVFTFGLKGGYEAGVKLVSNLQLFSHLANIGDTRSLVIHPASTTHRQLTDEQKRAAGAGPEVVRLSIGIEDAQDLIDDLDAALRA
notes: full-length, N-terminal 6xHis tag, modified pET22b(+), E. coli BL21(DE3), purified; printed primers translate to N-terminus … and C-terminus TLARAA

Columns and labels:
[1] = target: T1, MetY (O-acetyl-L-homoserine sulfhydrylase) (Methylorubrum extorquens, UniProt C5ARH8); assay: coupled acetic acid assay (NADH oxidation, […] nm); format: biochemical; conditions: pH 7.4, room temperature; co-substrate O-acetyl-L-homoserine saturating
T1 construct: full-length, N-terminal 6xHis tag, modified pET22b(+), E. coli BL21(DE3), purified; printed primers translate to N-terminus MHHHHHHSDQTPASVY and C-terminus TLARAA

[2] = substrate: CC(=O)OCC[C@H](N)C(=O)O; assay: purified protein; format: biochemical, Methylorubrum extorquens; conditions: pH 7.4, room temperature, other substrate saturating (sulfide or methanol; which one is not given)

| Molecule | Km [1] | Km [2] | kcat [2] | kcat/Km [2] |
| --- | --- | --- | --- | --- |
| S [Sodium sulfide] | 800 ± 200 µM | – | – | – |
| B1 | – | 1300 ± 200 µM | 2.32 ± 0.12 s⁻¹ | 1850 M⁻¹ s⁻¹ |
